Test results from patent US10286070B2, “Oncostatin M (OSM) antagonists for preventing cancer metastasis and IL-6 related disorders” (Boise State University, priority 2013, dated 2019).
“Also recorded” adds a separate entry of the source.

Tests used:
[1] = test system: pSTAT3, pJNK, pERK, and pAKT signaling; assay: Western blot analysis of downstream OSM signaling in MDA-MB-231 cell lysates; assay type: cell-based, human; conditions: MDA-MB-231 cells; 5 μM
[2] = test system: Du145 and PC3+STAT3 human prostate cancer cells; assay: OSM-induced detachment of human prostate cancer cells; assay type: cell-based; conditions: OSM 5 ng/mL, inhibitors 5 μM, 5 days
Method: FIGS. 15A and 15B. […] Detachment for FIG. 15A) Du145 and 15B) PC3+STAT3 human prostate cancer cells. 10,000 cells were plated in a 24-well plate in 1 mL complete media that was pre-incubated with OSM (5 ng/mL) and inhibitors (5 μM) for 1 hour. After 5 days, the detached cells were stained with Trypan Blue and counted using a hemocytometer.

[3] = test system: OSM-induced phosphorylation of STAT3 on Tyr-705 (pSTAT3); assay: pSTAT3 ELISA after OSM stimulation; assay type: cell-based; conditions: human breast cancer cells; OSM 25 ng/ml, 30 minutes
Source text: FIGS. 16A-16D. […] This method can be used for in vitro screening of lead compounds that inhibit OSM signaling. […] Cell lysates were collected and pSTAT3 levels were measure by ELISA.
Next an enzyme-linked immunosorbent assay (ELISA) for analyzing initial OSM-induced phosphorylation of STAT3 on Tyr-705 (pSTAT3) will be employed for the initial screen. […] The ability of the top 100 OSM-SMIs to inhibit OSM-OSMR interactions that result in expression of pSTAT3 will be evaluated by this assay and cells will be pretreated with the OSM-SMIs for 2 hours prior to the addition of OSM. As positive controls, neutralizing antibodies to human OSM or human gp130 will establish baseline pSTAT3 levels in the ELISA assay (FIG. 16A).
Actual physiological levels of OSM may be much lower than the nanogram levels used here. […] Therefore, testing inhibitors using lower concentrations of OSM may better allow for the detection of Effects at physiologically relevant concentrations.
Additionally, a functional dose response curve for OSM-SMI activity will be generated through 2 log units of concentration of compounds and used to establish the dynamic range of OSM-SMI activity. This will be used to determine the half maximal inhibitory concentration (IC50) as well as the minimum effective concentration (Ceff) for each compound.

[4] = test system: IL-6; assay: IL-6 ELISA on conditioned media of OSM treated human breast cancer cell lines; assay type: cell-based; conditions: OSM 25 ηg/ml, 48 hours
Method: (§1) 1×10^5T47D, MDA-MB-231, MCF7, MDA-MB-468, or 4T1.2 cells were plated in multi-well plates in the presence or absence of OSM for […]. Conditioned media was collected, diluted 1:5 and an IL-6 ELISA was performed as according to the manufacturer's recommended instructions.
(§2) OSM induced IL-6 expression was studied on various cell lines including two ER+ cell lines, T47D and MCF7, and three ER− cell lines MDA-MB-468, MDA-MB-231, and 4T1.2 cells. rhOSM was used for the four human cell lines at a concentration of 25 ηg/ml while rmOSM was used for the 4T1.2 cells at a concentration of 25 ηg/ml. The cells were incubated in OSM for a total of 48 hours and IL-6 levels in the conditioned media was assessed by ELISA. […] In the 4T1.2 mouse mammary cancer cells, OSM induced IL-6 by approximately 4-fold (FIG. 7). To test if OSM induced IL-6 in vivo, tumors from the MDA-MB-231 injected mice were lysed, homogenized, and the IL-6 levels were analyzed by ELISA.

[5] = test system: IL-6; assay: IL-6 ELISA on conditioned media of OSM treated 4T1.2 cells; assay type: cell-based, mouse; conditions: rmOSM 25 ηg/ml, 48 hours
Method: as §1, §2

[6] = test system: MDA-MB-231 D3H2LN luc2 cells; assay: MDA-MB-231 D3H2LN luc2 orthotopic xenograft with peri-tumoral OSM injections; assay type: in vivo, mouse
Method: For xenograft models, six-week-old female nude mice were obtained from the National Cancer Institute's Animal Production Facility (Frederick, Md.). Non-surgical orthotopic injections were performed using 2.0×10^6 cells diluted in 50 μL of PBS containing 10% medium. When the tumors became palpable, mice were randomized into groups and began receiving per-tumoral injections. For peri-tumoral injections, either 50 μL PBS or 1 μg recombinant full length human OSM (Peprotech) diluted in 50 μL PBS was injected into the area surrounding the tumor three times per week until the end point of the experiment.
Detection of human circulating tumor cells (CTCs) in mouse blood was performed. Human DNA standard curve was prepared by adding a specified number of human MDA-MB-231 cells into mouse blood and the DNA isolated for use in the qPCR reactions. Whole DNA was isolated from 100 μl of whole blood collected from mice at the end of the experiment. DNA was isolated using DNeasy Blood & Tissue kit (Quiagen Cat#) using the manufacturer's standard instructions. DNA concentrations were normalized between each sample and 4.5 ng of DNA was added to each 25 μl qPCR reaction. qPCR reaction mixture was obtained from the GoTaq qPCR Master Mix (Promega, Cat#TM318, Madison Wis.), and reaction mixtures were prepared in accordance with manufacturer recommendations. 0.125 μl of 100 μM primers for human Alu fragment, and for GAPDH was added to each reaction. The primer sequences used for Alu was (s:[…] a:[…]) and for
GAPDH the sequence used was (s: […]; a: […]). The qPCR reaction was done with SYBR green chemistry using a CXR reference dye and ran on an Applied Biosystems AB7300 real-time thermocycler. Reaction conditions were: 50° C. for 2 minutes, 95° C. for 3 minutes and 40 cycles of: (95° C. 00:15, 60° C. 00:30, 72° C. 00:30) and fluorescence measurements were taken during the annealing temperature stage (60° C.). cT values were determined and the final results were normalized to GAPDH signal levels.
BLI of live animals was initiated at 13 days after cell line injection and performed weekly. Three to five mice were imaged at one time. Ex vivo organs were also imaged using BLI. Both procedures follow our previously described protocols.
To determine the influence of OSM in human breast cancer, we used a xenograft model. MDA-MB-231 D3H2LN luc2 cells were injected into the fourth mammary fat pads of female nude mice. After the tumors were palpable, OSM (1 μg) or PBS were injected peri-tumorally 3 times per week (FIG. 6A), and mice were monitored until the end-point criteria were met. Tumor size was measured using calipers three times per week for the duration of the experiment and expressed as tumor volume (mm^3)=[…]. […] Next, BLI intensity of the cells was assessed in vivo. The BLI intensities of the tumors from both groups were similar with variations in intensities in both groups (FIG. 6C). A few mice in both groups had lower BLI intensities due to tumor necrosis.
Ex vivo analysis of the lungs was performed. […] Next, quantification of the BLI intensities of the lungs was performed.
Our studies on detecting CTCs involve the usage of the Alu transposon repeats for detecting human cells in mouse blood, and with colony forming assays that detects all transformed cells in the blood. […] In order to detect circulating tumor cells in the mouse circulatory system, DNA was isolated from mouse blood, and human alu fragment concentrations were determined in the blood by qPCR. […]

[7] = test system: DU-145 prostate cancer cell line; assay: Proliferation, detachment and morphology of DU-145 cells treated with OSM; assay type: cell-based, human; conditions: OSM 17.5 ng/ml
Method: (§3) Prostate cancer cell lines DU-145 and PC-3 were plated in triplicate in complete RPMI media at a cell density of 1,000 cells/ml and allowed to adhere overnight. Cells were treated the next day with OSM at a concentration of 17.5 ηg/ml (untreated cells were used as a control). Both detached cells and total cells were counted on days 1, 3, 5, 7, and 9. Detached cells were collected, stained with trypan blue and viable cells were counted using a hemocytometer. Adherent cells were trypsinized, stained with trypan blue and viable cells were counted on a hemocytometer. To look at the effects of OSM on prostate cancer cell proliferation, the number of viable detached cells and adherent cells were added together to determine the total number of cells.
The Epithelial-Mesenchymal Transition (EMT) was also measured. During the proliferation and detachment assays detailed above, micrographs of the DU-145 cells were taken at day 5 before cells were collected and counted.

[8] = test system: PC-3 prostate cancer cell line; assay: Proliferation and detachment of PC-3 cells treated with OSM; assay type: cell-based, human; conditions: OSM 17.5 ng/ml
Method: as §3

[9] = test system: DU-145 prostate cancer cell line; assay: Matrigel invasion assay, DU-145; assay type: cell-based, human
Method: (§4) FIG. 14. Invasive Potential for the DU-145 and PC-3 Prostate Cancer Cell Lines.
(§5) Invasion potential was also measured. OSM increased the invasion potential of both DU-145 and PC-3 cell lines (FIG. 14).

[10] = test system: PC-3 prostate cancer cell line; assay: Matrigel invasion assay, PC-3; assay type: cell-based, human
Method: as §4, §5

O=[N+]([O-])c1c(/C=N/Nc2ccccc2)oc(-c2ccc3c(c2)OCO3)c1-c1ccc2c(c1)OCO2 [OSM-SMI-10]
inhibition of OSM downstream signaling [1]: inhibited signaling to various extents | OSM-induced detachment [2]: decrease OSM-induced detachment

Cc1nc(C(N)=S)sc1C(=O)CC(=O)C(=O)Nc1nc2ccccc2[nH]1 [OSM-SMI-11]
inhibition of OSM downstream signaling [1]: inhibited signaling to various extents | OSM-induced detachment [2]: decrease OSM-induced detachment

B1: OSM: Oncostatin M, IL-6 family cytokine; recombinant human OSM used as stimulus on cells and by peri-tumoral injection (protein, listed as Homo sapiens)
chain: MGVLLTQRTLLSLVLALLFPSMASMAAIGSCSKEYRVLLGQLQKQTDLMQDTSRLLDPYIRIQGLDVPKLREHCRERPGAFPSEETLRGLGRRGFLQTLNATLGCVLHRLADLEQRLPKAQDLERSGLNIEDLEKLQMARPNILGLRNNIYCMAQLLDNSDTAEPTKAGRGASQPPTPTPASDAFQRKLEGCRFLHGYHRFMHSVGRVFSKWGESPNRSRRHSPHQALRKGVRRTRPSRKGKRLMTRGQLPR
induction of pSTAT3 by OSM [3]: induced pSTAT3; also recorded: induce pSTAT3 expression | IL-6 induction by OSM ([4]; MCF7 cells (ER+)): did not change | IL-6 induction by OSM ([4]; MCF7 cells (ER+), listed as rhOSM): did not induce IL-6 | IL-6 induction by OSM ([4]; MDA-MB-231 cells): 4-5 fold | IL-6 induction by OSM ([4]; MDA-MB-231 cells, listed as rhOSM): approximately 4 fold | IL-6 induction by OSM ([4]; MDA-MB-468 cells): 4-5 fold | IL-6 induction by OSM ([4]; MDA-MB-468 cells, listed as rhOSM): approximately 5 fold | IL-6 induction by OSM ([4]; T47D cells (ER+)): did not change | IL-6 induction by OSM ([4]; T47D cells (ER+), listed as rhOSM): did not induce IL-6 | IL-6 induction by OSM [5]: 4-5 fold | metastatic volume within the lungs ([6]; ex vivo analysis, peri-tumoral OSM versus PBS): larger metastatic volume | BLI intensities of the lungs, OSM injected group higher than PBS injected group ([6]; ex vivo lungs, orders of magnitude): 10^2 | tumor volume versus PBS group ([6]; female nude mice, OSM 1 μg peri-tumorally 3 times per week): did not differ | ex vivo lung BLI intensity versus PBS injections ([6]; female nude mice, peri-tumoral OSM): 200 fold | increase in number of circulating tumor cells per 100 μl of mouse blood ([6]; human Alu qPCR, versus animals without OSM injections): 3.5 fold | detachment ([7]; 5 days, versus untreated cells): significantly increased; also recorded: increased detachment | proliferation ([7]; 5 days, versus untreated cells): significantly increased; also recorded: increased proliferation | morphology (EMT) ([7]; day 5): more mesenchymal morphology; also recorded: mesenchymal orphology characteristic of having undergone EMT | detachment [8]: not and did not show increased detachment | proliferation [8]: not and did not show increased proliferation | invasion potential ([9]; OSM 17.5 ng/ml, 24 hours): increased invasion potential | treated cells showing an invasive potential ([9]; OSM treated DU-145 cells): Twenty three | invasion potential ([10]; OSM 17.5 ng/ml, 24 hours): increased invasion potential | treated cells showing an invasive potential ([10]; OSM treated PC-3 cells): 21% | increase in invasive potential versus untreated ([10]; PC-3 cells pretreated with OSM for 72 hours): 4 fold

B2: rmOSM: recombinant mouse OSM used for the 4T1.2 cells (protein, UniProt P53347 25-206, looked up)
Oncostatin-M: NRGCSNSSSQLLSQLQNQANLTGNTESLLEPYIRLQNLNTPDLRAACTQHSVAFPSEDTLRQLSKPHFLSTVYTTLDRVLYQLDALRQKFLKTPAFPKLDSARHNILGIRNNVFCMARLLNHSLEIPEPTQTDSGASRSTTTPDVFNTKIGSCGFLWGYHRFMGSVGRVFREWDDGSTRSRR
IL-6 induction by OSM [5]: approximately 4 fold
